# Experimental data reported in patent publication US20220396794A1, “APTAMERS AGAINST TRANSFERRIN RECEPTOR (TfR)” (APTERNA LIMITED, priority 2019, published 2022).
# T1: TfR2 (Homo sapiens, UniProt Q9UP52)
# T1 construct: In contrast, TB10 expresses TfR2, not TfR1; endogenous in cells; host or cells: TB10 human glioma cells
# T1 sequence (Q9UP52 1-801): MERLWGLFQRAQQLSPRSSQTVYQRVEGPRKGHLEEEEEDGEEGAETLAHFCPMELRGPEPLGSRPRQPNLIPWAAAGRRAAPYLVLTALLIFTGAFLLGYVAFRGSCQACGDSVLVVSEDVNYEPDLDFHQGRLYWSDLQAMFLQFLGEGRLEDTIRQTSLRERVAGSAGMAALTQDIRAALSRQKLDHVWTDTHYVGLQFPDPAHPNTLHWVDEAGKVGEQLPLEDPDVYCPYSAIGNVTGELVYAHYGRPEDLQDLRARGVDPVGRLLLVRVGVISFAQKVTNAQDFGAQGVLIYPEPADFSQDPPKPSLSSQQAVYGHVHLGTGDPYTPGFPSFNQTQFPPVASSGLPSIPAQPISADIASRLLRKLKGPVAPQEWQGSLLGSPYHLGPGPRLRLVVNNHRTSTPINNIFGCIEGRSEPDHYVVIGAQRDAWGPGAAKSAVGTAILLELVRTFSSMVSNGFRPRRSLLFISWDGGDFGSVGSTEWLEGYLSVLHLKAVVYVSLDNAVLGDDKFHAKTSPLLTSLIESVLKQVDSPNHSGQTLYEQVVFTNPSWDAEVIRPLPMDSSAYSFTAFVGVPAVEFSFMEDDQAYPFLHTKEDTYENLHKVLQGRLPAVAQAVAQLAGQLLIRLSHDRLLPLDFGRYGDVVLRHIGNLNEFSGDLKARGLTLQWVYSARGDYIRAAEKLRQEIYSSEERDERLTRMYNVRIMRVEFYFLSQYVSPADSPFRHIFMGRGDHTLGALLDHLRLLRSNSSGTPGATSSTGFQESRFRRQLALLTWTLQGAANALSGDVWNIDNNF
# B1: TR14: 87-nucleotide anti-hTfR 2′F-RNA aptamer identified after nine rounds of protein SELEX; SEQ ID NO:1 (nucleic acid)
# chain: GGGAGACAAGAAUAAACGCUCAAUGCGUUCACGUUUAUUCACAUUUUUGAAUUGAGCAUGAGCUUCGACAGGAGGCUCACAACAGGC
# modifications: 2'-fluoro RNA aptamer from SELEX, modified positions not given here
# Assays:
# [1] = target: T2, hTfR1 (extracellular domain of hTfR, His6-tagged) (Homo sapiens, UniProt P02786); assay: Surface plasmon resonance-based biosensor assay (Biacore T100), aptamer-hTfR binding affinity and kinetics
# T2 construct: (NP_003225.2) (Cys 89-Phe 760); His6 (N); purchased Sino Biological Inc 11020-H07H; host or cells: HEK293
# T2 sequence (P02786 89-760): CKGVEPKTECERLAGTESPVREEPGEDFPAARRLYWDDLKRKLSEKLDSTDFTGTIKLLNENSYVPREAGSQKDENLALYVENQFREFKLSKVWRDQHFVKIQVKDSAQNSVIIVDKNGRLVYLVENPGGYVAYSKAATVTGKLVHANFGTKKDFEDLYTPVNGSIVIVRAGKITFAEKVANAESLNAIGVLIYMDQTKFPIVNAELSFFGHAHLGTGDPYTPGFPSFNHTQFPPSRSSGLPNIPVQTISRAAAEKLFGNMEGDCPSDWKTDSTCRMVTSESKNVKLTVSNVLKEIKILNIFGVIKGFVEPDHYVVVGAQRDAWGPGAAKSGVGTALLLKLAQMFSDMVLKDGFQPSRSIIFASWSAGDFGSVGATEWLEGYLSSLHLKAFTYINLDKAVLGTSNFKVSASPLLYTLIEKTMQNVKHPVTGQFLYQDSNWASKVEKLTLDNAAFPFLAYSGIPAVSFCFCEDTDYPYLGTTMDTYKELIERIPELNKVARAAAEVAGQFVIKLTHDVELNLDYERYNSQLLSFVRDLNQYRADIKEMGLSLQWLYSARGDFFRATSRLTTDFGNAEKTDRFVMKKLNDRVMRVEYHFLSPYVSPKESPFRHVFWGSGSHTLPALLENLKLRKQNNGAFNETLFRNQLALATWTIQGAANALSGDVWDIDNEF
# From the text: Recombinant target protein. hTfR was purchased from Sino Biological Inc (11020-H07H, Beijing, P.R. China). The extracellular domain of hTfR (NP_003225.2) (Cys 89-Phe 760) was expressed with a His6-tag at the N-terminus in human cells (HEK293).
# Surface plasmon resonance-based biosensor assay. The Biacore T100 (GE Healthcare, Uppsala, Sweden) was used to monitor label-free interactions of truncated TR14-hTfR1 in real time. The biotinylated aptamer was coupled to a streptavidin-coated Biacore chip (SensorChip SA, BR-1003-98, General Electric Company) by an injection in binding buffer at a concentration of 25 μg/mL (30 mM Tris-HCl, pH 7.5; 150 mM NaCl; 5 mM MgCl2) at 10 uL/min. The RNA was refolded by heating to 65° C., followed by cooling to 37° C., before immobilization. To measure binding kinetics, five concentrations of purified hTfR1 protein were injected at a flow rate of 10 uL/min. After binding, the surface was regenerated by injecting 50 mM NaOH at a flow rate of 15 μL/min for 20 s. Data from the control surface were subtracted. BIAevaluation software (GE Healthcare) was used for analysis. The binding data was fit to a 1:1 binding with a mass transfer model to calculate kinetics parameters as previously described (Hernandez et al, 2009; Soontornworajit et al, 2011)
# PANC-1 cells [2] = assay: Live-cell confocal imaging for aptamer internalization, PANC-1; type: cell-based, human; conditions: Cy3-labeled aptamer 200 nM, 2-h incubation, PANC-1, confocal microscopy
# Procedure: (§1) Live-cell confocal imaging for aptamer internalization. 1×10^5 HepG2 or PANC-1 cells were seeded in 35-mm glass-bottom dishes (MatTek, Ashland, Mass.) and grown in appropriate media for 24 h. Aptamer RNAs were labeled with Cy3 fluorescent dye using the Cy3 Silencer siRNA labeling kit (Thermo Fisher Scientific, Waltham, Mass.). Cy3-labeled aptamers in binding buffer (30 mM Tris-HCl, pH 7.5; 150 mM NaCl; 5 mM MgCl2; 100 μg/mL yeast tRNA) were added to the cells at 200 nM and incubated at 37° C. for 2 h. Before imaging, cells were washed with DPBS twice. Live-cell confocal imaging was performed with a Zeiss LSM 510 Meta inverted two-photon confocal microscope system using a C-Apo 40×/1.2NA water immersion objective, and AIM 4.2 software (Carl Zeiss, Jena, Germany).
# TfR2 = target: T1, TfR2; assay: Cross-reactivity by live cell confocal imaging, TB10 cells (express TfR2, not TfR1); type: cell-based; conditions: Cy3-labelled aptamer, TB10 cells (TfR2 only)
# Procedure: (§2) Cell line. HepG2 (Hepatocarcinoma, HB-8065) and PANC-1 (Pancreatic epithelioid carcinoma, CRL-1469), U-87 MG (Glioblastoma, HTB-14) were purchased from the American Type Culture Collection (ATCC, Manassas, Va.). The cells were cultured according to the suppliers' instructions. TB10 human glioma cell line was obtained from Vittorio de Franciscis lab in Italy. The cells were cultured according to the suppliers' instructions.
# (§3) To determine the potential cross-reactivity of the parent TR14, S2 (43-nt) and ST1-3 (22-nt) truncates, we tested chemically synthesized parent TR14, TR14-[…] or TR14-ST1-3 aptamer labelled with Cy3 on live cells imaging by confocal microscopy. To test this, we choose two glioblastoma cell lines (U87MG and TB10) that are selectively expressed of TfR1 or TfR2. The U87MG cells only express TfR1, not TfR2. In contrast, TB10 expresses TfR2, not TfR1.
# HepG2 cells = assay: Live-cell confocal imaging for aptamer internalization, HepG2; type: cell-based, human; conditions: Cy3-labeled aptamer 200 nM, 2-h incubation, HepG2, confocal microscopy
# Procedure: as §1
# TfR1 = target: T3, TfR1 (Homo sapiens, UniProt P02786); assay: Cross-reactivity by live cell confocal imaging, U87MG cells (express TfR1, not TfR2); type: cell-based; conditions: Cy3-labelled aptamer, U87MG cells (TfR1 only)
# T3 construct: The U87MG cells only express TfR1, not TfR2; endogenous in cells; host or cells: U87MG (U-87 MG, ATCC HTB-14)
# T3 sequence (P02786 whole entry): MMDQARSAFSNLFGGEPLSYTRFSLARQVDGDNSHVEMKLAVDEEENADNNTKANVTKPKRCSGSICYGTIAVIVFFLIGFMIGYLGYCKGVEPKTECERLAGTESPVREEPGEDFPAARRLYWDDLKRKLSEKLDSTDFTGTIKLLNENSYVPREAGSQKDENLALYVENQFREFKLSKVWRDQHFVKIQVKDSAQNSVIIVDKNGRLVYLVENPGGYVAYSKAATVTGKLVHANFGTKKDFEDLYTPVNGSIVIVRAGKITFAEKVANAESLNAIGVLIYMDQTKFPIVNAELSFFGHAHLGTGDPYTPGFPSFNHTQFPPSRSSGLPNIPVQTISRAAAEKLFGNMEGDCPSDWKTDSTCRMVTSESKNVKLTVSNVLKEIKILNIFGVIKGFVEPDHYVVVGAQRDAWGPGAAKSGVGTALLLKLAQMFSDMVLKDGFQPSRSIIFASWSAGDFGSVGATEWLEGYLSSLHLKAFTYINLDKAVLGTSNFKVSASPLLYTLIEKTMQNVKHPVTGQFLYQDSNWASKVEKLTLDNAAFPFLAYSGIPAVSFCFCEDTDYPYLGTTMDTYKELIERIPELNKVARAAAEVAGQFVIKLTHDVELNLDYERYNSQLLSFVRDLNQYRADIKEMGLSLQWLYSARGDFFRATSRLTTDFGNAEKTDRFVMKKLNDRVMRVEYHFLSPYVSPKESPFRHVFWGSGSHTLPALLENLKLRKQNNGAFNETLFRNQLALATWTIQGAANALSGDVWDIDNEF
# Procedure: as §2, §3
# PANC-1 cells [3] = assay: Competition assays with human transferrin or human transferrin receptor antibodies; type: cell-based; conditions: aptamer 200 nM
# Procedure: Competition assays. For competition assays with human transferrin or human transferrin receptor antibodies, 5×10^3 PANC-1 cells/well were seeded in 96-well plates and grown in one day. Cells were pre-incubated with TR14 at 200 nM for 20 min on ice with PBS. After washing with PBS, human transferrin conjugated with Alexa-488 at 25 μg/mL or human transferrin receptor antibody (2 μL/1×10^4 cells) conjugated with FITC were added to cells and the cells were incubated at 37° C. for 40 min. Afterward, the cells were washed with HBSS twice to remove cell surface binders. The intensity of fluorescence was quantified using plate reader (Molecular device, SpectraMax iD5). The intensity was normalized with aptamer non-treated control cells (mock).
# PANC-1 cells [4] = assay: Flow cytometry-based binding assay; type: cell-based, human; conditions: Cy3-labelled aptamer 500 nM, 20 minutes in ice, PANC-1, compared with initial RNA library pool
# Procedure: Flow cytometry-based binding assays. Aptamer binding was assessed by flow cytometry. For the assay, the PANC-1 cells were detached using Accutase, washed with PBS and suspended in binding buffer. Next, chemically synthesized aptamers labeled with Cy3 at 500 nM were added to target cells for 20 minutes in ice. Cells were washed with binding buffer and immediately analyzed by NovoCyte (ACEA Biosciences). For the exclusion of dead cells, 4′6′-diamidino-2-phenylindole (DAPI) (1 μg/ml) was used. The data were analyzed with NovoExpress software.
# PANC-1 cells [5] = assay: Co-localization assay with early endosome, late endosome and lysosome markers; type: cell-based, human; conditions: Cy3 labelled aptamer 200 nM, 2 h, live cells expressing GFP-Rab5a, Rab7a or Lamp1
# Procedure: Co-localization assay. 1×10^5 PANC-1 cells were seeded in 35 mm glass-bottom dishes (MatTek, Ashland, Mass.) and grown in appropriate media for 24 h. CellLight™ Early endosome-GFP BacMam 2.0 (Thermo Fisher, C10586, CellLight™ Late endosome-GFP BacMam 2.0 (Thermo Fisher, C10588), or CellLight™ Lysosome-GFP BacMam 2.0 lysosome-GFP (Thermo Fisher, C10596) of 20 μL were added and incubated at 37° C. for 16 h. After confirmation of GFP expression, chemically synthesized TR14 labelled with Cy3 at 200 nM was incubated at 37° C. for 2 h. The co-localization was assessed on live cells by confocal microscopy.
# PANC-1 cells [6] = assay: Cellular uptake inhibition assay with endocytosis inhibitors; type: cell-based, human; conditions: Cy3-aptamer 200 nM, 1 hour
# Procedure: Cellular uptake inhibition assay. 5×10^3 PANC-1 cells/well were seeded in 96-well plates one day before assay. PANC-1 cells were left either pretreated or untreated with chlorpromazine (CPZ, clathrin endocytosis inhibitor, 10 μg/mL), chloroquine (CQ, clathrin endocytosis inhibitor, 20 μg/mL), dynasore (dynamine inhibitor, 80 μM), genistein (GEZ, caveolae/lipid mediated endocytosis inhibitor, 50 μg/mL), or, cytochalasin D (Cyto D, 5 μM) at 37° C. for 30 min. Subsequently, cells were washed with DPBS and incubated with Cy3-labeled aptamers at 200 nM at 37° C. f for 1 hour. Following incubation, cells were washed with HBSS to remove surface-bound aptamers. Cellular uptake was quantified by fluorescence using a plate reader (Molecular device, SpectraMax iD3). The inhibition of uptake was normalized with inhibitor non-treated groups (mock)
# [7] = Biacore T100, biotinylated aptamer on streptavidin chip, hTfR1 protein injected, 1:1 binding with mass transfer
# [8] = label-free biosensor assay in real-time
molecule,measurement,setting,value
B1,"ka (1/Ms), measured association rate",[1]; [7],6780 M⁻¹ s⁻¹
same,"kd (1/s), measured disassociation rate",[1]; [7],1.68e-06 s⁻¹
same,association (ka) rate constant,[1]; [8],6780 M⁻¹ s⁻¹
same,dissociation (kd) rate constant,[1]; [8],1.68e-06 s⁻¹
same,Kd,"[1]; label-free biosensor assay in real-time, read-out: equilibrium dissociation constant (K^D) for hTfR",0.0317 nM
same,cell internalization,PANC-1 cells [2],successfully internalized
same,binding to TfR2,TfR2,bound to both TfR1 and TfR2
same,cell internalization,HepG2 cells,successfully internalized
same,binding to TfR1,TfR1,bound to both TfR1 and TfR2
same,competition with transferrin receptor antibodies,PANC-1 cells [3]; FITC-conjugated human transferrin receptor antibody,did not compete
same,internalized transferrin after pre-incubation with aptamer,PANC-1 cells [3]; human transferrin-Alexa-488 25 μg/mL,significantly inhibited
same,cell surface binding by flow cytometry,PANC-1 cells [4],enriched cell surface binding
same,"subcellular co-localization with early endosome, late endosome and lysosome",PANC-1 cells [5],multiple co-localizations
same,uptake of aptamer after pre-treatment with clathrin mediated endocytosis (CME) inhibitors,"PANC-1 cells [6]; chlorpromazine 10 μg/mL, chloroquine 20 μg/mL or dynasore 80 μM",inhibited significantly
same,uptake of aptamer after pre-treatment with clathrin independent endocytosis (CIE) inhibitors,PANC-1 cells [6]; genistein 50 μg/mL or cytochalasin D 5 μM,not interfered
